# ± gives the standard deviation of the averaged measurements.
# System: Saccharomyces cerevisiae
# Test: protein stability index of tFT-peptide fusion (C-terminal peptide) (PSI (0-1 scale)); higher = more stable (slower turnover)
# Settings: temperature: 30 C
# Procedure: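 MPS profiling in S. cerevisiae of the yeast C-terminome library: the last 12 aa of each annotated ORF are fused to the C-terminus of a sfGFP-mCherry timer, after a GGGS linker. Cells are FACS-sorted into 8 mCherry/sfGFP bins and deep-sequenced. PSI runs from 0 (unstable) to 1 (stable); wild type and das1Δ backgrounds, two technical replicates each.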
# [1] = genetic background: das1 deletion
Sequence,protein stability index [1],protein stability index (genetic background: wild type)
IDDEDVVSLFAK [RBG2 C-terminal 12 aa],0.714 ± 0.035,0.732 ± 0.057
DDGDSDSWDTNW [CEX1 C-terminal 12 aa],0.701 ± 0.024,0.702 ± 0.014
DIEINDDLNGVL [VPS41 C-terminal 12 aa],0.653 ± 0.016,0.708 ± 0.053
IEEAASSLGFKR [PES4 C-terminal 12 aa],0.726 ± 0.027,0.701 ± 0.023
SVLQQTSKEPFW [HOS4 C-terminal 12 aa],0.732 ± 0.016,0.6975 ± 0.0026
ASQAKNSIEDDV [GTR2 C-terminal 12 aa],0.721 ± 0.021,0.689 ± 0.031
VLGFFKRRSMKI [FRK1 C-terminal 12 aa],0.72 ± 0.014,0.678 ± 0.018
ADMTKEFERESS [GLN1 C-terminal 12 aa],0.724 ± 0.018,0.701 ± 0.038
TVHQLRDRGFDI [ENV9 C-terminal 12 aa],0.73 ± 0.0077,0.717 ± 0.014
KTGKEVRSGKQL [ATX1 C-terminal 12 aa],0.689 ± 0.0069,0.679 ± 0.022
YKQVSSHNSHSQ [CUP2 C-terminal 12 aa],0.68 ± 0.034,0.691 ± 0.014
TSTITTTITMTL [SHE10 C-terminal 12 aa],0.636 ± 0.041,0.652 ± 0.042
LGEYIEEMNIRS [YBP2 C-terminal 12 aa],0.7143 ± 0.0008,0.684 ± 0.018
LAFYLRRLTAKK [RPS8A C-terminal 12 aa],0.674 ± 0.041,0.657 ± 0.0076
SYKSNQPSSQNT [MDM36 C-terminal 12 aa],0.672 ± 0.017,0.675 ± 0.0096
QEGNRMCIWMSG [YFL015C C-terminal 12 aa],0.7 ± 0.0079,0.7 ± 0.011
VFNNISLNFYIQ [YLL020C C-terminal 12 aa],0.782 ± 0.059,0.692 ± 0.0021
TVGTGLITRIIE [TUF1 C-terminal 12 aa],0.694 ± 0.032,0.6945 ± 0.0066
GVETIAKCIDLL [CAR2 C-terminal 12 aa],0.71 ± 0.017,0.698 ± 0.011
DEEREDDNYVPQ [CBC2 C-terminal 12 aa],0.689 ± 0.028,0.671 ± 0.022
LDQFEINSDGEE [NCS2 C-terminal 12 aa],0.691 ± 0.022,0.709 ± 0.012

Sequence,protein stability index [1],protein stability index (genetic background: wild type)
KFKIQNILNSTF [SIP4 C-terminal 12 aa],0.714 ± 0.011,0.711 ± 0.0095
DPLYYVYCLHMP [NAT4 C-terminal 12 aa],0.6582 ± 0.0016,0.643 ± 0.0089
LRWKKRNGIASK [NOP16 C-terminal 12 aa],0.636 ± 0.017,0.663 ± 0.028
KHASELSSNSKF [CTA1 C-terminal 12 aa],0.702 ± 0.029,0.681 ± 0.048
GPDAPLSKMKYE [SCS7 C-terminal 12 aa],0.684 ± 0.0086,0.704 ± 0.0071
QFWKNTPKVEQK [HOC1 C-terminal 12 aa],0.71 ± 0.024,0.695 ± 0.019
ALDAELDAYMKG [YRA2 C-terminal 12 aa],0.67911 ± 5.2e-05,0.7 ± 0.0058
LDLWRDFLNQAN [IDS2 C-terminal 12 aa],0.742 ± 0.015,0.629 ± 0.029
ESVSYLFTHAPV [PRS2 C-terminal 12 aa],0.734 ± 0.0093,0.711 ± 0.023
LMETSKDVDSHP [DMA2 C-terminal 12 aa],0.7 ± 0.01,0.729 ± 0.0096
VYTSKTRYRFAV [YHR210C C-terminal 12 aa],0.7137 ± 0.0024,0.578 ± 0.012
QRIEGMLQLLTS [UTP15 C-terminal 12 aa],0.715 ± 0.025,0.64093 ± 0.00026
DIFEDSSDEEQS [SPL2 C-terminal 12 aa],0.7179 ± 0.00076,0.727 ± 0.084
HCQPQEILVLRQ [PEX10 C-terminal 12 aa],0.7094 ± 0.0062,0.7 ± 0.013
HLPKATSLPYEK [YER097W C-terminal 12 aa],0.677 ± 0.0085,0.679 ± 0.055
DDRPIYKRFFSS [HXT9 C-terminal 12 aa],0.7117 ± 0.0052,0.654 ± 0.023
LELEFNSHFELK [HNT3 C-terminal 12 aa],0.69 ± 0.008,0.7 ± 0.041
IHCRSQNCLSLS [VBA4 C-terminal 12 aa],0.687 ± 0.024,0.681 ± 0.016
MDLKRFKGEFSF [PEX5 C-terminal 12 aa],0.69824 ± 0.00026,0.685 ± 0.036
LQPLIDLDIDNK [ICS2 C-terminal 12 aa],0.699 ± 0.026,0.702 ± 0.041
EPFGPKMSTVQV [YHB1 C-terminal 12 aa],0.6732 ± 0.0032,0.663 ± 0.0085

Sequence,protein stability index [1],protein stability index (genetic background: wild type)
YFLAERERINNH [PEX4 C-terminal 12 aa],0.721 ± 0.0079,0.694 ± 0.01
PLVHEVNGNEGK [DUF1 C-terminal 12 aa],0.68 ± 0.011,0.716 ± 0.076
ETIAEEMDSVHT [YAL064W-B C-terminal 12 aa],0.682 ± 0.012,0.662 ± 0.018
FIKKWAHYYKKF [SBE22 C-terminal 12 aa],0.711 ± 0.026,0.236 ± 0.0037
DNTTKHSSNVHT [YER079W C-terminal 12 aa],0.668 ± 0.014,0.667 ± 0.0093
GCSLQISYARRD [GBP2 C-terminal 12 aa],0.706 ± 0.018,0.6525 ± 0.0037
PTCETTIDIDRI [ZRG17 C-terminal 12 aa],0.687 ± 0.0087,0.65 ± 0.0076
EQSEQPEQHQDK [RPN10 C-terminal 12 aa],0.697 ± 0.018,0.666 ± 0.01
NIIIIILYVYIH [MOR1 C-terminal 12 aa],0.227 ± 0.0036,0.228 ± 0.025
GSGDEPDSKRRK [YCR051W C-terminal 12 aa],0.693 ± 0.044,0.666 ± 0.037
LKPWEGRIYISE [IMA1 C-terminal 12 aa],0.714 ± 0.016,0.6846 ± 0.0068
IRSLPLPFPHMD [MIG1 C-terminal 12 aa],0.723 ± 0.0091,0.757 ± 0.053
ENAHMQSAESCN [YLR236C C-terminal 12 aa],0.682 ± 0.011,0.717 ± 0.074
IAKEHDKIPKFL [INA22 C-terminal 12 aa],0.695 ± 0.027,0.672 ± 0.06
GDVSNLPYLDEL [QCR2 C-terminal 12 aa],0.694 ± 0.013,0.722 ± 0.039
REENAHLETYKV [HRK1 C-terminal 12 aa],0.7 ± 0.0068,0.694 ± 0.016
INIVVDMLASQH [RMD1 C-terminal 12 aa],0.606 ± 0.025,0.591 ± 0.011
ESAKQRRDKQKN [ATG38 C-terminal 12 aa],0.7096 ± 0.003,0.686 ± 0.02
AAVKLSQAKSKL [FOX2 C-terminal 12 aa],0.823 ± 0.019,0.752 ± 0.014
RSLSSRSKECSK [NOC3 C-terminal 12 aa],0.71 ± 0.0075,0.672 ± 0.045
AIYPVLSEFRKM [SPT15 C-terminal 12 aa],0.701 ± 0.0082,0.706 ± 0.074

Sequence,protein stability index [1],protein stability index (genetic background: wild type)
EKPPKEEPESDI [TIM54 C-terminal 12 aa],0.711 ± 0.032,0.666 ± 0.0042
KAMILTSYRYLE [CLP1 C-terminal 12 aa],0.675 ± 0.035,0.677 ± 0.056
RRHYSNEDSSFL [APC9 C-terminal 12 aa],0.7169 ± 0.0022,0.689 ± 0.036
SKSGSGGCCIIS [RAS2 C-terminal 12 aa],0.736 ± 0.0091,0.711 ± 0.011
MTRLKKLLTLEW [ZIP2 C-terminal 12 aa],0.817 ± 0.047,0.733 ± 0.046
VVLSYSMVGSVM [MAY24 C-terminal 12 aa],0.4645 ± 0.0021,0.474 ± 0.026
STLSRPFTWEEI [ATG34 C-terminal 12 aa],0.715 ± 0.031,0.75193 ± 0.00031
DTFIPSTLQSVT [YNL089C C-terminal 12 aa],0.702 ± 0.026,0.678 ± 0.015
KDVIEEALSRFG [UTP7 C-terminal 12 aa],0.704 ± 0.0086,0.677 ± 0.027
FVEGGDGKYVLN [YPL113C C-terminal 12 aa],0.688 ± 0.016,0.676 ± 0.014
GDLLSLKGEIMQ [ALK2 C-terminal 12 aa],0.689 ± 0.022,0.691 ± 0.029
GEDTGPTVEEVD [SSA3 C-terminal 12 aa],0.682 ± 0.013,0.684 ± 0.015
IQVVKSKVLNIE [YDR248C C-terminal 12 aa],0.691 ± 0.028,0.653 ± 0.016
ALCICCTMDMLF [YBR016W C-terminal 12 aa],0.6355 ± 0.0054,0.645 ± 0.048
LIMELAVNSQSN [SNF1 C-terminal 12 aa],0.681 ± 0.034,0.691 ± 0.027
KDSIKLLDKARL [MSS2 C-terminal 12 aa],0.774 ± 0.021,0.781 ± 0.085
GGKDKMVRLWTH [RSA4 C-terminal 12 aa],0.691 ± 0.011,0.698 ± 0.0076
LTYNTSCQRRQK [YOR161W-A C-terminal 12 aa],0.715 ± 0.0089,0.717 ± 0.072
GWLQDKHFEKYL [YOR338W C-terminal 12 aa],0.705 ± 0.022,0.447 ± 0.03
